Experimental data reported in US20240182536A1 (MURAL ONCOLOGY, published 2024).
Positions count from the first letter of the chain named. Names may count otherwise.

T1: human IL-18 binding protein (IL-18BP) (human, UniProt O95998 31-194)
T1 construct: also called hu IL-18BP; hIL18BP
T1 sequence (looked up): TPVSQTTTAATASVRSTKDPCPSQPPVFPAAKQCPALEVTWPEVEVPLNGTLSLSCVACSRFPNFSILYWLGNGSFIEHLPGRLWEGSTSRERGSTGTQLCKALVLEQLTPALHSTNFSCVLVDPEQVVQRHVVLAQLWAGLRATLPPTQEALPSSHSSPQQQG

T2: IL-18 receptor alpha (UniProt Q13478 19-329, limits assumed)
T2 construct: also called IL-18 Rα; IL-18Rα
T2 sequence (looked up): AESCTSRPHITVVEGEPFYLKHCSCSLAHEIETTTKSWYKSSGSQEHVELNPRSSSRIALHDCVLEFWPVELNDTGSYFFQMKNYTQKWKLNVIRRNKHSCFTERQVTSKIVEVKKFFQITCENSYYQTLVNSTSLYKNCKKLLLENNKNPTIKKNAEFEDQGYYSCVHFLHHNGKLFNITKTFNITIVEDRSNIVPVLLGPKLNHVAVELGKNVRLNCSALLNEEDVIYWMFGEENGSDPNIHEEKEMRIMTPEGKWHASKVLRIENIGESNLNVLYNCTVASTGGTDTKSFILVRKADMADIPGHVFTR

T3: IL-18 receptor (IL-18Rα and IL-18Rβ) (UniProt Q13478 19-541; O95256 20-599, limits assumed)
T3 sequence (looked up) 1: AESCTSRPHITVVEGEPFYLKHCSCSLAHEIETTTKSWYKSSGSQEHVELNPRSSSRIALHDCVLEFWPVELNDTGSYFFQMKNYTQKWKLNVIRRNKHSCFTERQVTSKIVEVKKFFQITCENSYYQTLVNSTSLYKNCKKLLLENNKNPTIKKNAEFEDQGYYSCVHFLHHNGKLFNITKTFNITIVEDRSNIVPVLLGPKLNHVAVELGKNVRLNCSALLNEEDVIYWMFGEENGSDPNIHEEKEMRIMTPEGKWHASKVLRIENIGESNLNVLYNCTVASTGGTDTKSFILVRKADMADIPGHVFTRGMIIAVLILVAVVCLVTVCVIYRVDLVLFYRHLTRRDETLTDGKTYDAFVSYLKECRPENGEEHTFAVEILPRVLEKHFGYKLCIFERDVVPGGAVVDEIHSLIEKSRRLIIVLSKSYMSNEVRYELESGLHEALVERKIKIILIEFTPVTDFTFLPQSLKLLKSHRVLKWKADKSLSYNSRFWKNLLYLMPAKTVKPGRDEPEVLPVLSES
T3 sequence (looked up) 2: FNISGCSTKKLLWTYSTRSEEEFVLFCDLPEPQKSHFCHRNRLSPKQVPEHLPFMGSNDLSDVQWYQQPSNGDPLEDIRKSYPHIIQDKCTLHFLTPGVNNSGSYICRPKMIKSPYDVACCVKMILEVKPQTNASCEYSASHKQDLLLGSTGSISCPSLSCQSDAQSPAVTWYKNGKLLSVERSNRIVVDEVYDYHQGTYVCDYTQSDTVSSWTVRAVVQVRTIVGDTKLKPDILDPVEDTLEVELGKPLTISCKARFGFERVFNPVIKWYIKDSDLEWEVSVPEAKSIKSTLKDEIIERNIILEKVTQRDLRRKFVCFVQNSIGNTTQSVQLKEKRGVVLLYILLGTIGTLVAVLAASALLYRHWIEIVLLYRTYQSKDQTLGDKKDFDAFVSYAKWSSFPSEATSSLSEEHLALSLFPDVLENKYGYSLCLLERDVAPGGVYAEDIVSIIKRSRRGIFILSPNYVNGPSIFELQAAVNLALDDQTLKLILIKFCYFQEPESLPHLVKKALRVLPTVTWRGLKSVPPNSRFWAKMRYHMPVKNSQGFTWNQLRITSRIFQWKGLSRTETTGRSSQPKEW

T4: IL-18 receptors on HEK-Blue IL-18 reporter cells (InvivoGen) (UniProt Q13478 19-541; O95256 20-599)
T4 sequence (looked up) 1: T3 sequence (looked up) 1
T4 sequence (looked up) 2: T3 sequence (looked up) 2

T5: human IL-18 binding protein (human, UniProt O95998 31-194)
T5 sequence (looked up): T1 sequence (looked up)

T6: IL-18 receptors on HEK-Blue IL-18 reporter cells (UniProt Q13478 19-541; O95256 20-599, limits assumed)
T6 sequence (looked up) 1: T3 sequence (looked up) 1
T6 sequence (looked up) 2: T3 sequence (looked up) 2

B1: IL-18 variant G3A, K53S (ligand)
chain: YFAKLESKLSVIRNLNDQVLFIDQGNRPLFEDMTDSDMRDNAPRTIFIISMYSDSQPRGMAVTISVKSEKISTLSSENKIISFKEMNPPDNIKDTKSDIIFFQRSVPGHDNKMQFESSSYEGYFLASEKERDLFKLILKKEDELGDRSIMFTVQNED
B2: IL-18 variant G3F, K53S (ligand)
chain: B1 chain with A3F
B3: IL-18 variant G3R, N91W, K53A (ligand)
chain: B1 chain with A3R, S53A, N91W
notes: also called G3R/K53A/N91W
B4: IL-18 variant G3T, K53S (ligand)
chain: B1 chain with A3T
B5: IL-18 variant G3H, N91V, K53S (ligand)
chain: B1 chain with A3H, N91V
notes: also called G3H/K53S/N91V
B6: IL-18 variant G3R, N91M, K53S (ligand)
chain: B1 chain with A3R, N91M
notes: also called G3R/K53S/N91M
B7: IL-18 variant G3S, K53S (ligand)
chain: B1 chain with A3S
B8: Comparator 1 (ligand)
chain: YFGKLESKLSVIRNLNDQVLFIDQGNRPLFEDMTDSDCRDNAPRTIFIISKYSDSLARGLAVTISVKCEKISTLSCENKIISFKEMNPPDNIKDTKSDIIFFQRDVPGHSRKMQFESSSYEGYFLACEKERDLFKLILKKEDELGDRSIMFTVQNED
notes: Human IL-18 variant M51K, K53S, Q56L, P57A, M60L, S105D, D110S, N111R; also called IL-18 Comparator 1
B9: human IL-18 variant G3T/K53S/M60K (ligand)
chain: B1 chain with A3T, M60K
B10: human IL-18 variant G3V/E6K/K53S/M60K (ligand)
chain: B1 chain with A3V, E6K, M60K
B11: human IL-18 variant G3T/E6K/K53S/M60K (ligand)
chain: B1 chain with A3T, E6K, M60K
B12: human IL-18 variant G3T/E6K/K53A/M60K (ligand)
chain: B1 chain with A3T, E6K, S53A, M60K
B13: human IL-18 variant G3V/K53A/M60K (ligand)
chain: B1 chain with A3V, S53A, M60K
B14: human IL-18 variant G3T/K53A/M60K (ligand)
chain: B1 chain with A3T, S53A, M60K
B15: human IL-18 variant G3V/E6K/K53A/M60K (ligand)
chain: B1 chain with A3V, E6K, S53A, M60K
B16: human IL-18 variant G3V/K53S/M60K (ligand)
chain: B1 chain with A3V, M60K

Biological target: T1, human IL-18 binding protein (IL-18BP)
Assay: Octet BLI
Method: (§1) Octet 96red instrument was used to determine affinities of IL18 proteins to BP or receptors. 5-10 ug/ml analyte proteins were used for loading on Sartorius tips (AHC or SA). […] 120-180 s loading, 200 s association and 800 s dissociation were used for kinetics. 3-7 data points were used to calculate affinities.
Select G3/K53-substitution containing IL-18 variants and select G3/K53/N91-substitution containing TL-18 variants were tested for activity in the HEK-blue activity assay and for binding affinity to IL-18BP. As shown in the data of Table 15 and Table 16 below, each variant had similar or better activity than WT IL-18, and retained substantial activity in the presence of IL-18BP.

Row | Binder | Kd [nM] | koff [s⁻¹] | kon [M⁻¹ s⁻¹]
1 | B1 | 16.2 | 0.00398 | 245000
2 | B2 | 11.8 | 0.0048 | 408000
3 | B3 | 1 | 0.000185 | 185000
4 | B4 | 18 | 0.00474 | 263000
5 | B5 | 8.6 | 0.0031 | 359000
6 | B6 | 3.3 | 0.000735 | 223000
7 | B7 | 12 | 0.00338 | 283000

Biological target: T2, IL-18 receptor alpha
Assay: Octet BLI
Method: as §1
Additional IL-18 variants were generated and tested based on the results above with G3 variants, E6 variants, K53 variants, and M60 variants. The new variants were first tested for binding to IL-18Rα and IL-18BP by octet, as described above.

Row | Binder | Kd [nM]
8 | B8 | 16
9 | B9 | 5050
10 | B10 | 324
11 | B11 | 536
12 | B12 | 222
13 | B13 | 488
14 | B14 | 2260
15 | B15 | 82
16 | B16 | 5310

Biological target: T3, IL-18 receptor (IL-18Rα and IL-18Rβ)
Assay: cell-based or functional assay

Row | Binder | EC50 pM, IFN gamma expression in PBMCs [pM]
17 | B3 | 49.8
18 | B4 | 368
19 | B5 | 222
20 | B6 | 73.9

Biological target: T1, human IL-18 binding protein (IL-18BP)
Assay: cell-based or functional assay

Row | Binder | HEK-Blue Ec50 (pM), +IL-18BP (50 nM) [pM]
21 | B1 | 4.45
22 | B2 | 5.88
23 | B4 | 5.18
24 | B7 | 4.43

Biological target: T4, IL-18 receptors on HEK-Blue IL-18 …
Assay: cell-based or functional assay

Row | Binder | HEK-Blue Ec50 (pM), -IL-18BP [pM]
25 | B1 | 1.69
26 | B2 | 3.39
27 | B4 | 2.5
28 | B7 | 2.06

Biological target: T1, human IL-18 binding protein (IL-18BP)
Assay: cell-based or functional assay
Remark: another data set of the same source

Row | Binder | HEK-Blue Ec50 (pM), +IL-18BP (50 nM) [pM]
29 | B3 | 4.22
30 | B5 | 2.51
31 | B6 | 2.16

Biological target: T4, IL-18 receptors on HEK-Blue IL-18 …
Assay: cell-based or functional assay
Remark: another data set of the same source

Row | Binder | HEK-Blue Ec50 (pM), -IL-18BP [pM]
32 | B3 | 0.04
33 | B5 | 0.94
34 | B6 | 0.12

Biological target: T5, human IL-18 binding protein
Assay: cell-based or functional assay

Row | Binder | HEK-blue EC50 (pM) + 300 nM BP [pM]
35 | B9 | 4.99
36 | B10 | 0.098
37 | B11 | 0.308
38 | B12 | 0.062
39 | B13 | 0.063
40 | B14 | 1.01
41 | B15 | 0.033
42 | B16 | 2.18

Biological target: T6, IL-18 receptors on HEK-Blue IL-18 …
Assay: cell-based or functional assay

Row | Binder | HEK-blue EC50 (pM) - BP [pM]
43 | B9 | 4.26
44 | B10 | 0.079
45 | B11 | 0.33
46 | B12 | 0.061
47 | B13 | 0.041
48 | B14 | 0.843
49 | B15 | 0.026
50 | B16 | 2.11

Biological target: T5, human IL-18 binding protein
Assay: cell-based or functional assay
Remark: another data set of the same source

Row | Binder | HEK-blue EC50 (pM) + 1000 nM BP [pM]
51 | B9 | 4.1
52 | B10 | 0.095
53 | B11 | 0.231
54 | B12 | 0.065
55 | B13 | 0.075
56 | B14 | 1.31
57 | B15 | 0.028
58 | B16 | 2.61

Biological target: T6, IL-18 receptors on HEK-Blue IL-18 …
Assay: cell-based or functional assay
Remark: another data set of the same source

Row | Binder | HEK-blue EC50 (pM) - BP [pM]
59 | B9 | 5.53
60 | B10 | 0.089
61 | B11 | 0.252
62 | B12 | 0.054
63 | B13 | 0.086
64 | B14 | 1.88
65 | B15 | 0.031
66 | B16 | 0.021
